Experimental data taken from patent US20120244164A1 (published 2012).
Residue numbers refer to the chain shown, from its start. Numbers in names are those of the source. Blank lines part the entries; values can stand above or below the binder they belong to.

Columns and labels:
[1] = molecular target: T1, recombinant human c-Met/Fc chimera (R&D systems) (human); assay: HGF-competition Alphascreen, EXP 1, second value
T1 construct: R&D Systems 358-MT/CF, expressed in NS0 cells; also called hc-Met/Fc; hu c-Met/Fc

[2] = molecular target: T1, recombinant human c-Met/Fc chimera (R&D …); assay: HGF-competition Alphascreen, EXP 1
Human c-Met [3] = molecular target: T2, Human c-Met (human, UniProt P08581 25-1390); assay: cell-based or functional assay
cynomolgus c-Met = molecular target: T3, cynomolgus c-Met (cynomolgus monkey, UniProt A0M8R7 25-1381 (Papio anubis entry)); assay: competition FACS: 0.5 nM biotinylated HGF on BAF3 cells with cynomolgus c-Met
T3 construct: also called cynomolgus monkey c-Met; cyno c-Met
Protocol: Cells were analyzed on a FACSarray flow cytometer as described in earlier examples.

Human c-Met [4] = molecular target: T2, Human c-Met; assay: cell-based or functional assay; remark: listed apart in the source
[5] = molecular target: T1, recombinant human c-Met/Fc chimera (R&D …); assay: SPR (ProteOn), c-Met/Fc captured on anti-human IgG(Fc)
Protocol: (§1) Anti-human IgG(Fc) antibody (GE Healthcare) was immobilized on a ProteOn GLC Sensorchip (BioRad) via amine coupling on two ligand lanes at densities of approximately 5300 RU and 2700 RU. […] Regeneration of the surface was performed by an 80 seconds injection of 3M magnesium chloride at 25 μl/min (component of kit BR-1008-39, GE Healthcare).
The experiment was performed as described in Example 5.

[6] = molecular target: T4, recombinant human CTLA4/Fc chimera (R&D Systems) (human, UniProt P16410 37-162, limits assumed); assay: SPR (ProteOn), CTLA4/Fc captured on anti-human IgG(Fc)
T4 construct: control protein; not shown: Fc part of a bought protein, not described
Protocol: as §1

[7] = molecular target: T1, recombinant human c-Met/Fc chimera (R&D …); assay: HGF-competition Alphascreen, EXP 2
Human c-Met [8] = molecular target: T2, Human c-Met; assay: cell-based or functional assay; remark: listed apart in the source
[9] = molecular target: T1, recombinant human c-Met/Fc chimera (R&D …); assay: modified HGF-competition Alphascreen: 0.4 nM biotinylated HGF, 0.016 nM cMet/Fc
[10] = molecular target: T1, recombinant human c-Met/Fc chimera (R&D …); assay: HGF-competition Alphascreen
[11] = molecular target: T1, recombinant human c-Met/Fc chimera (R&D …); assay: HGF-competition Alphascreen: biotinylated hHGF, human c-Met/Fc
Human c-Met [12] = molecular target: T2, Human c-Met; assay: cell-based or functional assay; remark: listed apart in the source
Human c-Met [13] = molecular target: T2, Human c-Met; assay: cell-based or functional assay; remark: listed apart in the source
[14] = molecular target: T1, recombinant human c-Met/Fc chimera (R&D …); assay: HGF/c-MET competition Alphascreen; reference 5D5 Fab v2
Protocol: (§2) To this mixture the anti-human Fc conjugated acceptor beads and c-MET/Fc (100 pM final concentration) were added and incubated for 2 hours at RT. Next, streptavidin donor beads were added and the mixture was incubated for 1 additional hour. Fluorescence was measured by reading plates on the EnVision Multilabel Plate Reader using an excitation wavelength of 680 nm and an emission wavelength of 520 nm.

[15] = molecular target: T1, recombinant human c-Met/Fc chimera (R&D …); assay: HGF/c-MET competition Alphascreen: 100 pM biotinylated hHGF, 100 pM c-MET/Fc
Protocol: as §2

Human c-Met [16] = molecular target: T2, Human c-Met; assay: cell-based or functional assay; remark: listed apart in the source

T1 sequence (chain, as listed by the source mutant limits assumed): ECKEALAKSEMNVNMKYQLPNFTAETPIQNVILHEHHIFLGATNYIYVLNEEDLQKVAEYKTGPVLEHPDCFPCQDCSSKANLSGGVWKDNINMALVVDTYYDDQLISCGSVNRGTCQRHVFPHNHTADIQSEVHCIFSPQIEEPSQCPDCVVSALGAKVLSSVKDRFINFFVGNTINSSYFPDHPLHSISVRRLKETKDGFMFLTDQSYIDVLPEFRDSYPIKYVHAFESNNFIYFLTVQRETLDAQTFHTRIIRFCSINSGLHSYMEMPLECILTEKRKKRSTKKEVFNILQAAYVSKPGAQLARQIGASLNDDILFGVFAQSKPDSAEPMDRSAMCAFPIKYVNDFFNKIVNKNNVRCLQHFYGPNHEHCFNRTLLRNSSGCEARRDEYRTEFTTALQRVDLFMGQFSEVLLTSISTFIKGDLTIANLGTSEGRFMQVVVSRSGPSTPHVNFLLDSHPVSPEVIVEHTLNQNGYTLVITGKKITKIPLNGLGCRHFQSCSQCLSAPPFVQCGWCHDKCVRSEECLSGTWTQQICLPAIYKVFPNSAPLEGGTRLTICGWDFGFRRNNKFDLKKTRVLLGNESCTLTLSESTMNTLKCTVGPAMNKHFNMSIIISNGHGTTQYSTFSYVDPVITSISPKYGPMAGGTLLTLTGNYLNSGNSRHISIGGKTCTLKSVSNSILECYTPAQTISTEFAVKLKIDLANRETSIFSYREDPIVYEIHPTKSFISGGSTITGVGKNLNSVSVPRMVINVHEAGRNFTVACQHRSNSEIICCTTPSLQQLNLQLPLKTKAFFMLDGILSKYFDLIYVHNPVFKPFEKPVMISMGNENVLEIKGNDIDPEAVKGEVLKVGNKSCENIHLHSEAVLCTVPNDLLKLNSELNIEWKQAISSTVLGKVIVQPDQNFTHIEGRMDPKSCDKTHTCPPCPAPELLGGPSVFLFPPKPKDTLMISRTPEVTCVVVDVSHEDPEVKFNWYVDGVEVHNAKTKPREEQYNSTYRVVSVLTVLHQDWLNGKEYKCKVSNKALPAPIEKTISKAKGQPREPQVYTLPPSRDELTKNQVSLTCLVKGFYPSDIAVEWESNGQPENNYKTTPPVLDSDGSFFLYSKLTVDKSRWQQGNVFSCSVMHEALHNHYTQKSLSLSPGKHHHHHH
T2 sequence (P08581 25-1390 limits assumed): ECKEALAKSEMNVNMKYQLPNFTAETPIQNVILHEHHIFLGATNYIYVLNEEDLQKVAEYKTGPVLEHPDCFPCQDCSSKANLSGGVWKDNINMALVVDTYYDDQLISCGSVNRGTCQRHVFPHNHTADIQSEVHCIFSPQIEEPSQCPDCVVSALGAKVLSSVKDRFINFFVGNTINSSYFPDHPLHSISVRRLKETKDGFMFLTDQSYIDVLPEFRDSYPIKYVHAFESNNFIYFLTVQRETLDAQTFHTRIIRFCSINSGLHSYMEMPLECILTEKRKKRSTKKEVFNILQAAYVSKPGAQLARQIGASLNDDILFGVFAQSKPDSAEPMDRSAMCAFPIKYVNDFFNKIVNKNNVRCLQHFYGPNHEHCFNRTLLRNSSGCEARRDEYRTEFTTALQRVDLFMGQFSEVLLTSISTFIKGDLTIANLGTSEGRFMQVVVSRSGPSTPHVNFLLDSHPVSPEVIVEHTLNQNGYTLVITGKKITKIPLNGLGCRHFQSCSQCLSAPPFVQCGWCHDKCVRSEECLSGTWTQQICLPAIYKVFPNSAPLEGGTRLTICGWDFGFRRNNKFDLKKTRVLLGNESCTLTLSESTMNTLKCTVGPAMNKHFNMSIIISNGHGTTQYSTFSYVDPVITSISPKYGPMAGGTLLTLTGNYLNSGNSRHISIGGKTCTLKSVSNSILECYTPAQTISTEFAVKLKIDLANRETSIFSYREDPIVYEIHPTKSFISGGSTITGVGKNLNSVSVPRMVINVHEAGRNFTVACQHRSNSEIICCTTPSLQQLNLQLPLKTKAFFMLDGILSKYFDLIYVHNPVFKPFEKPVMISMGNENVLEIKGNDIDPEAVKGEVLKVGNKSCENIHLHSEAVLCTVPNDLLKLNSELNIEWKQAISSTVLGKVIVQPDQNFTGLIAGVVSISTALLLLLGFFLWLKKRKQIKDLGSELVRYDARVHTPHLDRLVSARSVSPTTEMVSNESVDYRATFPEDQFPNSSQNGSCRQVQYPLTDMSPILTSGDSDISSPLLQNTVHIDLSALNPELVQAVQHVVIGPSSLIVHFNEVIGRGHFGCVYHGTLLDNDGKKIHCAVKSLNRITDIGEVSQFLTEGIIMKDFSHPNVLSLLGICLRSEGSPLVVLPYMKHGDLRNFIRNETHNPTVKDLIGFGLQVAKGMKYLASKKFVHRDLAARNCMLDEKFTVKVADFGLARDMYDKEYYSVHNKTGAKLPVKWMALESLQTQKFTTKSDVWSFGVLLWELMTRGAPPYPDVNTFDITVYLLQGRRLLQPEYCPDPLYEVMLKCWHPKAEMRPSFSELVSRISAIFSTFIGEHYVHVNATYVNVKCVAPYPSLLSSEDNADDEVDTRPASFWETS
T3 sequence (A0M8R7 25-1381 S170N/I621T limits assumed): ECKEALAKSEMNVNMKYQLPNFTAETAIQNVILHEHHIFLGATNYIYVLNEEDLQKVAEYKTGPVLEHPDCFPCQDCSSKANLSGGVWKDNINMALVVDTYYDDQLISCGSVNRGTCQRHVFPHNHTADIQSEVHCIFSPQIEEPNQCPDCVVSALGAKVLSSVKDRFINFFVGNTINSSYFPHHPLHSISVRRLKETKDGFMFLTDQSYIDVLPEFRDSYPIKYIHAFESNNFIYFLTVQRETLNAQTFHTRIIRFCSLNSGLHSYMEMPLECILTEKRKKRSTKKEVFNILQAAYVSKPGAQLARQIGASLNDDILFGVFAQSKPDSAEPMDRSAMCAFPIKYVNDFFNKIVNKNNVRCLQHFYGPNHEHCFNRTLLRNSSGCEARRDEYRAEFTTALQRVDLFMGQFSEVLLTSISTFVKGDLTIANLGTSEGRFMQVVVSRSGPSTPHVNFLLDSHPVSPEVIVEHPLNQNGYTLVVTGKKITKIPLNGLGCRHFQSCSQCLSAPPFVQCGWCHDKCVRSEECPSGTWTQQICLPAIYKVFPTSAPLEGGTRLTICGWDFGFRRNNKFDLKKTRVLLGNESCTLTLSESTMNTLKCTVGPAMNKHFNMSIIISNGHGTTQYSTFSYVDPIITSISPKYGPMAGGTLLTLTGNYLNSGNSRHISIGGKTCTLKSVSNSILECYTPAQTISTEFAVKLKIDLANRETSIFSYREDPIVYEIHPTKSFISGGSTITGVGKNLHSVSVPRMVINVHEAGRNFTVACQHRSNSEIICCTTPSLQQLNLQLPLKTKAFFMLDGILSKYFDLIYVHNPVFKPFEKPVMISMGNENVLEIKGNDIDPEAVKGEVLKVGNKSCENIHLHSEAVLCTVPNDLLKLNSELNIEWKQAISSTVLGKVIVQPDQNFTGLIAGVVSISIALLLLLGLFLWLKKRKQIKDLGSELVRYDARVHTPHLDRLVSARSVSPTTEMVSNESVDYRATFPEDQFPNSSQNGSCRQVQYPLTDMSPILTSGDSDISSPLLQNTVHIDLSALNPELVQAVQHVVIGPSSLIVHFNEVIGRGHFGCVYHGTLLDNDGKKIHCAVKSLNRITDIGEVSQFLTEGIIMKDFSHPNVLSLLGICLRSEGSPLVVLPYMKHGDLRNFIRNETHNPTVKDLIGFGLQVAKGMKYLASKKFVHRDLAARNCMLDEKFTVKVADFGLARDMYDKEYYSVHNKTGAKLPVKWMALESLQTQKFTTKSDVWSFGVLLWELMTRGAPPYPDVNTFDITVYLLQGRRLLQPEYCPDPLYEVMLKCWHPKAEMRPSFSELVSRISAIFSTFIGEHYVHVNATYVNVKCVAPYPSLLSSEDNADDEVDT
T4 sequence (P16410 37-162 limits assumed, change not shown): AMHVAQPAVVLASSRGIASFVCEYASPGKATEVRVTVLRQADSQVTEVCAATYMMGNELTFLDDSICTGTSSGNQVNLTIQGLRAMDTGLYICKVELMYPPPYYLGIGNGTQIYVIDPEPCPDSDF

IC50 [1]: 0.069 nM
IC50 [2]: 0.069 nM
IC50, c-Met phosphorylation, EXP 1 (Human c-Met [3]): 2.21 nM
B1: A00790067 (VHH)
VHH: VQLVESGGGLVQPGGSLRLSCAASGFILDYYAIGWFRQAPGKEREGVLCIDASDDITYYADSVKGRFTISRDNAKNTVYLQMNSLKPEDTGVYYCATPIGLSSSCLLEYDYDYWGQGTLVTVSS
notes: the entry as printed already holds the 3xFLAG-His6 tag; also called 04E09 (Q108L)

% inhibition (cynomolgus c-Met): 100%
IC50 (cynomolgus c-Met): 0.61 nM
IC50, HGF-dependent c-Met phosphorylation in A549 tumor cells (Human c-Met [4]): 3.1 nM
B2: 04E09 (L49S) (SEQ ID NO: 23) tagged with 3xFlag-His6 (VHH)
VHH: EVQLVESGGGLVQPGGSLRLSCAASGFILDYYAIGWFRQAPGKEREGVSCIDASDDITYYADSVKGRFTISRDNAKNTVYLQMNSLKPEDTGVYYCATPIGLSSSCLLEYDYDYWGQGTLVTVSS

IC50 [1]: 0.072 nM
IC50 [2]: 0.104 nM
IC50, c-Met phosphorylation, EXP 1 (Human c-Met [3]): 1.96 nM
B3: A00790068 (VHH)
VHH: B2 VHH with S49L, A75S, K87R
notes: the entry as printed already holds the 3xFLAG-His6 tag; also called 04E09 (A74S, K83R, Q108L)

% inhibition (cynomolgus c-Met): 101%
IC50 (cynomolgus c-Met): 0.49 nM
IC50, HGF-dependent c-Met phosphorylation in A549 tumor cells (Human c-Met [4]): 3.8 nM
Kd [5]: 0.0234 nM
koff [5]: 7.9e-05 s⁻¹
kon [5]: 3.37e+06 M⁻¹ s⁻¹
binding result [6]: no binding
B4: 04E09 (C22A/C92S) (SEQ ID NO: 25) tagged with 3xFlag-His6 (VHH)
VHH: EVQLVESGGGLVQPGGSLRLSAAASGFILDYYAIGWFRQAPGKEREGVLCIDASDDITYYADSVKGRFTISRDNAKNTVYLQMNSLKPEDTGVYYSATPIGLSSSCLLEYDYDYWGQGTLVTVSSGAADYKDHDGDYKDHDIDYKDDDDKGAAHHHHHH

IC50 [7]: 0.061 nM
IC50, c-Met phosphorylation, EXP 2 (Human c-Met [3]): 2.33 nM
B5: A00790105 tagged with 3xFlag-His6 (VHH)
VHH: B2 VHH with E1D, S49L, A75S, K87R, G92A
notes: also called 04E09 (E1D, A74S, K83R, G88A, Q108L)

% inhibition (cynomolgus c-Met): 100%
IC50 (cynomolgus c-Met): 20 nM
factor of decrease in potency against parental SEQ ID NO: 7 (cynomolgus c-Met): ~35 fold
Kd [5]: 4.09 nM
koff [5]: 0.000788 s⁻¹
kon [5]: 193000 M⁻¹ s⁻¹
binding result [6]: no binding
B6: 04E09 (C50S/C100bG) (SEQ ID NO: 24) tagged with 3xFlag-His6 (VHH)
VHH: B2 VHH with S49L, C50S, C106G

IC50 [1]: 0.046 nM
IC50 [2]: 0.107 nM
IC50 [7]: 0.071 nM
IC50, c-Met phosphorylation, EXP 1 (Human c-Met [3]): 2.05 nM
IC50, c-Met phosphorylation, EXP 2 (Human c-Met [3]): 2.45 nM
B7: A00790069 (VHH)
VHH: B2 VHH with S49L, A75S, K87R, G92A
notes: the entry as printed already holds the 3xFLAG-His6 tag; also called 04E09 (A74S, K83R, G88A, Q108L)

IC50, cell-based cMet phosphorylation assay (Human c-Met [8]): 5.41 nM
IC50, cell-based proliferation assay, plate 1 (Human c-Met [8]): 3.69 nM
IC50 [9]: 0.091 nM
IC50 [10]: 0.092 nM
B8: A007901245 (VHH)
VHH: EVQLVESGGGLVQPGGSLRLSCAASGFTFDDYAIGWFRQAPGEEREGVSSISSTYGLTYYADSVKGRFTISSDNSKNTVYLQMNSLRPEDTAVYYCAATPIGLIGLDAYEYDYWGQGTLVTVSS
notes: 33H10 variant, 3xFLAG-His6 tagged; the entry holds the tag; also called monovalent form of A007901255

IC50, cell-based cMet phosphorylation assay (Human c-Met [8]): 3.44 nM
IC50, cell-based proliferation assay, plate 1 (Human c-Met [8]): 1.88 nM
IC50 [9]: 0.048 nM
IC50 [10]: 0.089 nM
B9: A007901246 (VHH)
VHH: B8 VHH with T28A
notes: 33H10 variant, 3xFLAG-His6 tagged; the entry holds the tag; also called monovalent form of A007901256

IC50, cell-based cMet phosphorylation assay (Human c-Met [8]): 2.34 nM
IC50, cell-based proliferation assay, plate 1 (Human c-Met [8]): 2.29 nM
IC50, cell-based proliferation assay, plate 2 (Human c-Met [8]): 1.32 nM
IC50 [9]: 0.035 nM
IC50 [10]: 0.081 nM
B10: A007901250 (VHH)
VHH: B8 VHH with T28A, E46L
notes: 33H10 variant, 3xFLAG-His6 tagged; the entry holds the tag; also called monovalent form of A007901260

IC50, cell-based cMet phosphorylation assay (Human c-Met [8]): 2.81 nM
IC50, cell-based proliferation assay, plate 2 (Human c-Met [8]): 1.93 nM
IC50 [9]: 0.043 nM
IC50 [10]: 0.08 nM
B11: A007901249 (VHH)
VHH: B8 VHH with E46L
notes: 33H10 variant, 3xFLAG-His6 tagged; the entry holds the tag; also called monovalent form of A007901259

IC50 [11]: 0.072 nM
IC50, c-Met phosphorylation (Human c-Met [12]): 3.97 nM
IC50, proliferation assay (Human c-Met [12]): 1.37 nM
B12: A007901222 (bispecific antibody)
chain: DVQLVESGGGLVQPGGSLRLSCAASGFILDYYAIGWFRQAPGKEREGVLCIDASDDITYYADSVKGRFTISRDNSKNTVYLQMNSLRPEDTAVYYCATPIGLSSSCLLEYDYDYWGQGTLVTVSSGGGGSGGGSEVQLLESGGGLVQPGGSLRLSCAASGFTFRSFGMSWVRQAPGKGPEWVSSISGSGSDTLYADSVKGRFTISRDNSKNTLYLQMNSLRPEDTAVYYCTIGGSLSRSSQGTLVTVSSA
notes: produced in P. pastoris X33; also called A00790105-9GS-Alb23-A

fold improved potency against 5D5 Fab v2, cMET phosphorylation assay (Human c-Met [13]): ~2 fold
fold improved potency against 5D5 Fab v2 [14]: > 5 fold
IC50 [15]: 0.066 nM
IC50, cMET phosphorylation assay, A549 cells, +HSA (Human c-Met [16]): 4.2 nM
IC50, cMET phosphorylation assay, A549 cells, -HSA (Human c-Met [16]): 5.41 nM
B13: A007901219 (A00790105-9GS-Alb23) (bispecific antibody)
chain: DVQLVESGGGLVQPGGSLRLSCAASGFILDYYAIGWFRQAPGKEREGVLCIDASDDITYYADSVKGRFTISRDNSKNTVYLQMNSLRPEDTAVYYCATPIGLSSSCLLEYDYDYWGQGTLVTVSSGGGGSGGGSEVQLLESGGGLVQPGGSLRLSCAASGFTFRSFGMSWVRQAPGKGPEWVSSISGSGSDTLYADSVKGRFTISRDNSKNTLYLQMNSLRPEDTAVYYCTIGGSLSRSSQGTLVTVSS
notes: also called A007901219 (Alb23)
